The text below walks through data of patent publication US20180334496A1 (KODIAK SCIENCES, published 2018).

For test [1], the target named is T1, recombinant human CFD, His-tagged (human, UniProt P00746 26-253).
T1 construct: also called rhCFD-His
The test can be described thus: SPR MX96.

In test [2] the target is T2, human complement factor D purified from serum (human, UniProt P00746 26-253).
T2 construct: serum-purified (CompTech); also called hCFD-Comptech; CFD
The test can be described thus: SPR MX96.

In test [3] the target is T3, recombinant human CFD mutant 1 (R157A, R207A), His-tagged (human, UniProt P00746 26-253).
T3 construct: positions are linear positions in the mature protein; also called rhCFD-mut1-His; Mut1
The test can be described thus: SPR MX96.

Test [4] addresses T4, recombinant cynomolgus CFD, His-tagged (cynomolgus).
T4 construct: also called rcyCFD-His; recombinant Cyno-CFD
The experiment in a line: SPR MX96.

Test [5] deals with T5, human Complement Factor D (CFD), purified from human serum (human, UniProt P00746 26-253).
T5 construct: serum purified (CompTech A136); also called serum purified CFD; hCFD-Comptech
The experiment in a line: SPR MX96, mAbs amine-coupled, CFD injected.

Substitutions are numbered along the chain they refer to.

T3 sequence (P00746 26-253 R182A/R232A limits assumed): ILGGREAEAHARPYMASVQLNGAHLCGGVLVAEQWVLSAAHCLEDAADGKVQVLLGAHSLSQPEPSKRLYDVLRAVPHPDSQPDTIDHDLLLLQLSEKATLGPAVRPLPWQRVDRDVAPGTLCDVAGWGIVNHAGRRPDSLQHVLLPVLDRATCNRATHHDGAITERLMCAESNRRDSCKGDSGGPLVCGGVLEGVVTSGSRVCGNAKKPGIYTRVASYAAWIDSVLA
T1 sequence (P00746 26-253 limits assumed): as the sequence (P00746 26-253 R182A/R232A limits assumed) above, with A157R, A207R counted along it
T2 sequence (P00746 26-253): as the sequence (P00746 26-253 R182A/R232A limits assumed) above, with A157R, A207R counted along it
T5 sequence (P00746 26-253): as the sequence (P00746 26-253 R182A/R232A limits assumed) above, with A157R, A207R counted along it

B1: KCD030 (antibody, V domains shown)
VH: QVQLQQSGAELAKPGASVKMSCKASGYTFTNYWMHWVKQRPGQGLEWIGYINPSIGYTEYNQKFKDKATLTADKSSSTAYMQLSSLTSEDSAVFYCATFIYYAMDYWGQGTSVTVSS
VL: DIQMNQSPSSLSASLGDTITITCHASQNINVWLSWYQQKPGNIPKLLIYKASNLHTGVPSRFSGSGSGTGFTLTISSLQPEDIATYYCQQGQSYPYTFGGGTKLEIK
Regarding B1, the Kd in test [1] came to 3.8 nM; in test [2] it was 4.2 nM; in test [3], 1.3 nM.

B2: KCD114 (antibody, V domains shown)
VH: EVQLQQSGPELVKPGASVKISCKASGYSFTAYYMNWVKQSPEKSLEWIGDINPSTGGTTYNQNFKAKATLTVDKSSSTAYMHLKSLTSEDSAVYYCATTYYSGNSYVGFAYWGQGTLVTVSA
VL: DIVMTQSHKFMSTSVGDRVSITCKASQDVSTAVAWYQQKPGQSPKLLIFWASTRHTGVPDRFTGSGSGTDYTLTISSVQAEDLALYYCQQHYSTPWTFGGGTKLEIK
For the molecule B2, the Kd in test [1] amounted to 3.8 nM; in test [2], 8.1 nM; in test [3], 8.4 nM; in test [4] it was 8.4 nM.

B3: KCD077 (antibody, V domains shown)
VH: EVQLQQSGAELVRPGALVKLSCKASGFNIKDYYMHWVKQRPEQGLEWIGWIDPENGHTIYDPRFQGKATITADTSSNTAYLQLSSLTSEDTAVYYCSRGLLGFAYWGQGTLVTVSA
VL: DIVMTQSQKFMSTSVGDRVSVTCKASQNVGTNVAWYQQKPGQSPKALIYTASYRYSGVPDRFTGSGSGTDFTLTISNVQSEDLAEYFCQQYNSYPHMYTFGGGTKLEIK
Take B3: the equilibrium dissociation constant (Kd) in test [2] is 17 nM; in test [3], 13 nM; in test [4], 14 nM.

B4: KCD212 (antibody, V domains shown)
VH: EVHLVESGGDLVKPGGSLKLSCAASGFTFSRYGMSWVRQTPDKRLEWVATISSAGSYTYYPDSVKGRFTISRDNAKNTLFLQMSSLKSEDTAMYYCARPLNYYGTSSFDYWGQGTTLTVSS
VL: QIVLTQSPAIMSASPGEKVTMTCRASSSVSSTYLHWYQQKPGSSPKLWIYSTSNLASGVPPRFSGSGSGTSYSLTISSVEAEDAATYYCQQYDSSPNTFGAGTKLELK
Take B4: the Kd in test [1] was determined as 0.21 nM; in test [2], 0.47 nM; in test [3], 0.2 nM; in test [4], 3.8 nM.

B5: KCD212 (antibody, V domains shown)
VH: B4 VH
VL: B4 VL
With B5, the Kd in test [5] was 0.469 nM.

B6: KCD019 (antibody, V domains shown)
VH: QVQLQQSGAELARPGASVKMSCKASGYTFATYTIHWVKQRPGQGLEWIGYLNLRNDYTHYNQKFRDKAALTADKSSSTAYMQLSSLTSEDSAVYNCAFRLGNDRQGWYFDVWGAGTTVTVSS
VL: DIVMTQAHRFMSTSVGDRVIISCKASQDVGTAVAWYQQTPGQSPKILIYWTSTRHTGVPDRFTGSRSGTDFTLTISNVQSEDLADYFCQQYTTYPLTFGGGTKLEIK
Turning to B6, the Kd in test [1] was determined as 61 nM; in test [2], 7.2 nM; in test [3] it was 180 nM; in test [4] it was 47 nM.

B7: KCD066 (antibody, V domains shown)
VH: QVQLQQSAAELARPGASVKMSCKASGYTFTDYTMHWVKQRPGQGLEWIGYINPSGGYTDYNQKFKDKTALTADKSSSTAYMQLSSLTSEDSAVYYCARRRDYWFAYWGQGTLVTVSA
VL: DIVMSQSPSSLAVSVGEKVTMSCKSSQSLLYSGNQKNYLAWYQQKPGQSPKLLIYWASTRESGVPDRFTGSGSGTDFTLTISSVKAEDLAVYYCHQYYSYLTFGAGTKLELK
On to B7, for which the Kd turned out to be 1.9 nM in test [1], 2.9 nM in test [2], 1.2 nM in test [3] and 4 nM in test [4].

B8: KCD219 (antibody, V domains shown)
VH: QVQLQQSGPELVKPGASVKISCKASGYTFTDYYINWVKQRPGQGLEWIGWIFPGSGSTYYNEKFKGKATLTVDKSSSTAYMLLSSLPSEDSAVYFCARYGYYGSSFYAMDYWGQGTSVTVSS
VL: DIQMTQSPASLSVSVGETVTITCRASENIYSNLAWYQQKQGKSPQLLVYAATNLADGVPSRFSGSGSGTQYSLKINSLQSEDFGSYYCQHFWGSPPTFGGGTKLEIK
In test [5], B8 came in with a Kd of 4.3 nM.

B9: KCD225 (antibody, V domains shown)
VH: B8 VH with V37M, G56D, P87T, Y99L, G103S, S104H, F106Y
VL: B8 VL with V15T, Y36F, N76T, S94T, P96L, G100A, E105D, I106L
In turn, B9 returned a dissociation constant (Kd) in test [5] of 8.67 nM.

B10: KCD004 (antibody, V domains shown)
VH: EVQLQQSGAELVRPGSSVKMSCKTSGKTFTSHGINWVKQRPGQGLEWIGYIYIGNGYNEYNEKFKGKATLTSDTSSSTAYMQLSSLTFEDSAIYFCVRKAYGNYGFDDWGQGTTLTVSS
VL: DIQMTQSPTSLSASLGESVSLTCRASQEISGYLNWLQQKPDGSIKRLIYAASTLDSGVPKRFSGSRSGSDYSLTISSLESEDFADYYCLQYANYPFTFGSGTKLEVK
notes: also called OG2063
Turning to B10, the equilibrium dissociation constant (Kd) in test [1] was determined as 0.24 nM; in test [2], 0.35 nM; in test [3], 0.14 nM; in test [4], 0.92 nM.

B11: KCD125 (antibody, V domains shown)
VH: B10 VH with K27N, H32Y, N55T, N58T, F88S, D108Y
VL: B10 VL with T9S, S18R, N34S, S43T, N93S, V106I
For B11, the Kd in test [1] was found to be 2.5 nM; in test [2] it was 3.8 nM; in test [3], 2.7 nM; in test [4], 4.1 nM.

B12: KCD205 (antibody, V domains shown)
VH: B10 VH with K27N, F88S
VL: B10 VL with T9S, S18R, N34S, S43T, R66S, E81D, N93S, V106I
For the molecule B12, the Kd in test [1] was 1.9 nM; in test [2], 3 nM; in test [3], 1.8 nM; in test [4], 3.3 nM.

B13: KCD126 (antibody, V domains shown)
VH: B10 VH
VL: B10 VL with Y32N
Regarding B13, the Kd in test [1] turned out to be 0.29 nM; in test [2], 0.34 nM; in test [3], 0.18 nM; in test [4], 0.93 nM.

B14: KCD014 (antibody, V domains shown)
VH: EVKLVESGGGLVQPGGSLKLSCAASGFTFSSYIMSWVRQTPEKRLEWVAYITNGGGNTYYPDTIKGRFTISRDNAKNTLYLQMSSLKSEDTAMYYCARHGTGYAMDYWGQGTSVTVSS
VL: EIVLTQSPTTMAASPGEKITITCSASSSISSNYLHWYQQKPGFSPKLLIYRTSNLASGVPARFSGSGSGTSYSLTIGTMEAEDVATYYCQQGSSIPLTFGAGTKLELK
Turning to B14, the Kd in test [1] was found to be 20 nM; in test [2], 22 nM.

B15: KCD011 (antibody, V domains shown)
VH: EVKLVESGGGLVQPGGSLKLSCAASGFTFSSNTMSWVRQTPEKRLEWVAYITNGGGSTYYPDTVKGRFTISRDNARNTLYLQMSSLKSEDTAMYYCARHDYYTMDYWGQGTSVTVSS
VL: DIQMTQSPSSLSASLGGKVTITCKASQDINKYIAWYQHKPGKGPRLLIHYTSTLQPGIPSRFSGSGSGRDYSFSISNLEPEDIATYYCLQYDNLLYTFGGGTKLEIK
Turning to B15, the Kd came to 59 nM in test [1], 77 nM in test [2], 110 nM in test [3] and 38 nM in test [4].

B16: KCD063 (antibody, V domains shown)
VH: B14 VH with T28I, N57S, I64V, F68L, A97V, G100A, T101H, G102Y
VL: B15 VL with A34T
With B16, the values for the Kd in test [2] and in test [4] were 33 nM and 24 nM, respectively.

B17: KCD056 (antibody, V domains shown)
VH: B15 VH with L20V, S31T, N32Y, V64E, R76K, A97V, T103A
VL: B15 VL with K103T
Regarding B17, the Kd in test [1] came to 52 nM; in test [2] it was 60 nM; in test [3], 84 nM; in test [4], 31 nM.

B18: KCD057 (antibody, V domains shown)
VH: EVKLVESGGGLVQPGGSLKLSCAASGFTFSNYIMSWVRQTPEKRLEWVAYITNGGGATYYPDTVKGQFTISRDNAKNTLYLQMSSLKSEDTAIYYCARHDFYALDFWGQGTSVTVSS
VL: B15 VL with Q90K
As for B18, the Kd in test [1] was found to be 2.7 nM; in test [2] it was 2.7 nM; in test [3], 2.5 nM; in test [4], 3.1 nM.

B19: KCD058 (antibody, V domains shown)
VH: B18 VH with G10D, N31R, Q39L, Y50F, A57N, Y60H, Q67R, K76N, F101Y, F106Y
VL: B15 VL
Take B19: the Kd worked out at 9.4 nM in test [1], 9.9 nM in test [2], 7.6 nM in test [3] and 11 nM in test [4].

B20: KCD133 (antibody, V domains shown)
VH: EVQLVESGGGLLQPKGSLKLSCAASGFTFNTYAMNWVRQAPGKGLEWVARIRSKSSNYATYYADSVKDRFTISRDDSQSMFYLEMNNLKTEDTAMYYCVRDRGYYYVMDYWGQGTSVTVSS
VL: DIVLTQSPASLAVSLGQRATISCRASESVEYYGTSLMQWYQQKPGQPPKLLINAASNVESGVPARFSGSGSGTDFSLNIHPVEEDDIAMYFCQQSRKVPWTFGGGTKLEIK
With B20, the Kd in test [1] was determined as 14 nM; in test [2], 12 nM; in test [4] it was 84 nM.
